Experimental data taken from US20240132578A1.

Tests used:
Assay in all cases: cell-based or functional assay
[1] = molecular target: HIV-1 APV17 envelope glycoprotein (Env), clade B pseudovirus (HIV-1)
[2] = molecular target: HIV-1 JRFL envelope glycoprotein (Env), clade B pseudovirus (HIV-1)
[3] = molecular target: HIV-1 Env of isolate MGRM-D-018 (clade D) (HIV-1)
[4] = molecular target: HIV-1 92UG024 envelope glycoprotein (Env) (HIV-1)
[5] = molecular target: HIV-1 94UG103 envelope glycoprotein (Env) (HIV-1)
[6] = molecular target: HIV-1 CMU02 envelope glycoprotein (Env) (HIV-1)
[7] = molecular target: HIV-1 JRFL envelope glycoprotein (Env) (HIV-1)
[8] = molecular target: aMLV envelope protein
[9] = molecular target: HIV-1 JRFL Env (HIV-1 isolate JRFL (clade B))
[10] = molecular target: HIV-1 MGRM-C-026 Env (HIV-1 isolate MGRM-C-026 (clade C))
[11] = molecular target: HIV-1 envelope glycoprotein (Env) of isolate JRCSF (HIV-1) (UniProt P20871)
[12] = molecular target: HIV-1 envelope glycoprotein (Env) of isolate JRFL (HIV-1)
[13] = molecular target: HIV-1 envelope glycoprotein (Env) of isolate MGRM-C-026 (HIV-1)
[14] = molecular target: HIV-1 92BR020 envelope glycoprotein (Env) on virus (HIV-1, clade B, isolate 92BR020)
[15] = molecular target: HIV-1 92UG024 envelope glycoprotein (Env) on virus (HIV-1, clade D, isolate 92UG024)
[16] = molecular target: HIV-1 JRFL envelope glycoprotein (Env) on virus (HIV-1, clade B, isolate JRFL)
[17] = molecular target: HIV-1 MGRM-A-010 envelope glycoprotein (Env) on virus (HIV-1, clade A, isolate MGRM-A-010)
[18] = molecular target: HIV-1 MGRM-AG-005 envelope glycoprotein (Env) on virus (HIV-1, clade AG, isolate MGRM-AG-005)
[19] = molecular target: HIV-1 MGRM-C-026 envelope glycoprotein (Env) on virus (HIV-1, clade C, isolate MGRM-C-026)
[20] = molecular target: HIV-1 MGRM-C-028 envelope glycoprotein (Env) on virus (HIV-1, clade C, isolate MGRM-C-028)
[21] = molecular target: aMLV envelope protein on virus (negative control) (aMLV)
[22] = molecular target: HIV-1 Env of isolate MGRM-Chronic-B-011 (subtype B), on pseudovirus (HIV-1)
[23] = molecular target: HIV-1 Env of isolate MGRM-F1-008 (subtype F) (HIV-1)
[24] = molecular target: HIV-1 envelope glycoprotein (Env) of isolate MG RM-A-004 (HIV-1)
[25] = molecular target: Envelope protein of control pseudovirus MuLV (MuLV)
[26] = molecular target: HIV-1 Env of pseudovirus THRO.18 (HIV-1)
[27] = molecular target: HIV-1 Env of pseudovirus ZM233 (HIV-1)
[28] = molecular target: HIV-1 JR-FL Env E168K, on pseudovirus (HIV-1 isolate JR-FL (clade B))
[29] = molecular target: HIV-1 93IN905 Env (pseudovirus) (HIV-1)
[30] = molecular target: HIV-1 MGRM-D-001 Env (pseudovirus) (HIV-1)

Chain of 1443_C16 (PG16) (TCN-116) (antibody) (VH): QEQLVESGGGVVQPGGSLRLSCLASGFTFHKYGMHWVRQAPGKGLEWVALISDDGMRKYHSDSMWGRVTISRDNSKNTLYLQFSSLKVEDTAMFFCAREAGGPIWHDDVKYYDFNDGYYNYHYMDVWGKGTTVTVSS
Chain of 1443_C16 (PG16) (TCN-116) (antibody) (VL): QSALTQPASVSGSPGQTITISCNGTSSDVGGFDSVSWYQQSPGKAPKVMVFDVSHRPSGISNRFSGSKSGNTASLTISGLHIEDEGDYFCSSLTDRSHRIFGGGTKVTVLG
Chain of 5329_C19 (PGT-136) (antibody) (VH): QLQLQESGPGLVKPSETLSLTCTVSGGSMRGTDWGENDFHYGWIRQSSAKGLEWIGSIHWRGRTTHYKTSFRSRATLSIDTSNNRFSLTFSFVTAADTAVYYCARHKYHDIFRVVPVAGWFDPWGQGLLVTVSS
Chain of 5329_C19 (PGT-136) (antibody) (VL): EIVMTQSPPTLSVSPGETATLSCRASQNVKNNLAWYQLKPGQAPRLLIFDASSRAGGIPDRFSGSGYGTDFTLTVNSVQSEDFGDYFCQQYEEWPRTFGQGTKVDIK

4858_P08 (PGT-123) (antibody)
IC50, pseudovirus neutralization [1]: 0.18 µg/mL
IC80 (pseudovirus neutralization) [1]: 0.539 µg/mL
IC90 (pseudovirus neutralization) [1]: 1.01 µg/mL
IC95 (pseudovirus neutralization) [1]: 1.75 µg/mL
IC50, pseudovirus neutralization [2]: 0.0283 µg/mL
IC80 (pseudovirus neutralization) [2]: 0.0904 µg/mL
IC90 (pseudovirus neutralization) [2]: 0.178 µg/mL
IC95 (pseudovirus neutralization) [2]: 0.332 µg/mL

1496_C09 (PG9) (TCN-109) (antibody)
Neutralization IC80 [3]: 0.18 µg/mL
Neutralization IC90 [3]: 0.43 µg/mL
Neutralization IC95 [3]: 1.05 µg/mL
neutralization IC50 [3]: 0.0444 µg/mL

5329_C19 (PGT-136) (antibody)
Neutralization IC80 [4]: 0.619 µg/mL
Neutralization IC90 [4]: 1.96 µg/mL
Neutralization IC95 [4]: 5.97 µg/mL
neutralization IC50 [4]: 0.0915 µg/mL
Neutralization IC80 [5]: > 10 µg/mL
Neutralization IC90 [5]: > 10 µg/mL
Neutralization IC95 [5]: > 10 µg/mL
neutralization IC50 [5]: > 10 µg/mL
Neutralization IC80 [6]: > 10 µg/mL
Neutralization IC90 [6]: > 10 µg/mL
Neutralization IC95 [6]: > 10 µg/mL
neutralization IC50 [6]: > 10 µg/mL
Neutralization IC80 [7]: > 10 µg/mL
Neutralization IC90 [7]: > 10 µg/mL
Neutralization IC95 [7]: > 10 µg/mL
neutralization IC50 [7]: > 10 µg/mL
Neutralization IC80 [8]: > 10 µg/mL
Neutralization IC90 [8]: > 10 µg/mL
Neutralization IC95 [8]: > 10 µg/mL
neutralization IC50 [8]: > 10 µg/mL

4838_L06 (PGT-121) (antibody)
Neutralization IC80 [9]: 0.0806 µg/mL
Neutralization IC90 [9]: 0.151 µg/mL
Neutralization IC95 [9]: 0.267 µg/mL
Neutralization IC95 [10]: 0.0687 µg/mL

5141_B17 (PGT-126) (antibody)
Neutralization IC80 [11]: 0.018 µg/mL
Neutralization IC90 [11]: 0.0339 µg/mL
Neutralization IC95 [11]: 0.0608 µg/mL
neutralization IC50 [11]: 0.0061 µg/mL
Neutralization IC80 [12]: 0.0454 µg/mL
Neutralization IC90 [12]: 0.09 µg/mL
Neutralization IC95 [12]: 0.169 µg/mL
neutralization IC50 [12]: 0.014 µg/mL
Neutralization IC80 [13]: 0.0345 µg/mL
Neutralization IC90 [13]: 0.0831 µg/mL
Neutralization IC95 [13]: 0.185 µg/mL
neutralization IC50 [13]: 0.0076 µg/mL

4877_D15 (PGT-122) (antibody)
Neutralization IC80 [14]: 0.0929 µg/mL
Neutralization IC90 [14]: 0.168 µg/mL
Neutralization IC95 [14]: 0.289 µg/mL
neutralization IC50 [14]: 0.0337 µg/mL
Neutralization IC80 [15]: > 10 µg/mL
Neutralization IC90 [15]: > 10 µg/mL
Neutralization IC95 [15]: > 10 µg/mL
neutralization IC50 [15]: > 10 µg/mL
Neutralization IC80 [16]: 0.166 µg/mL
Neutralization IC90 [16]: 0.342 µg/mL
Neutralization IC95 [16]: 0.659 µg/mL
neutralization IC50 [16]: 0.0471 µg/mL
Neutralization IC80 [17]: > 10 µg/mL
Neutralization IC90 [17]: > 10 µg/mL
Neutralization IC95 [17]: > 10 µg/mL
neutralization IC50 [17]: 1.68 µg/mL
Neutralization IC80 [18]: > 10 µg/mL
Neutralization IC90 [18]: > 10 µg/mL
Neutralization IC95 [18]: > 10 µg/mL
neutralization IC50 [18]: > 10 µg/mL
Neutralization IC80 [19]: 0.037 µg/mL
Neutralization IC90 [19]: 0.0849 µg/mL
Neutralization IC95 [19]: 0.181 µg/mL
neutralization IC50 [19]: 0.0089 µg/mL
Neutralization IC80 [20]: > 10 µg/mL
Neutralization IC90 [20]: > 10 µg/mL
Neutralization IC95 [20]: > 10 µg/mL
neutralization IC50 [20]: 2.06 µg/mL
Neutralization IC80 [21]: > 10 µg/mL
Neutralization IC90 [21]: > 10 µg/mL
Neutralization IC95 [21]: > 10 µg/mL
neutralization IC50 [21]: > 10 µg/mL

PGV04 (antibody)
IC50, single-round pseudovirus neutralization [22]: 0.497 µg/mL
IC50 (µg/mL), pseudovirus neutralization [23]: 1.03 µg/mL
IC50 [24]: 0.175 µg/mL

1443_C16 (PG16) (TCN-116) (antibody)
IC50, pseudovirus neutralization (TZM-bl assay), control virus [25]: > 25 µg/mL
IC50, pseudovirus neutralization (TZM-bl assay) [26]: 2.19 µg/mL
IC50, pseudovirus neutralization (TZM-bl assay) [27]: < 0.01 µg/mL
IC50 (ug/ml), pseudovirus neutralization, TZM-bl assay [28]: 0.006 µg/mL

5123_A06 (PGT-125) (antibody)
Neutralization by PGT-125, IC50 [29]: 0.0137 µg/mL
Neutralization by PGT-125, IC80 [29]: 0.0494 µg/mL
Neutralization by PGT-125, IC90 [29]: 0.106 µg/mL
Neutralization by PGT-125, IC95 [29]: 0.216 µg/mL
Neutralization by PGT-125, IC50 [30]: 2.31 µg/mL
Neutralization by PGT-125, IC80 [30]: > 10 µg/mL
Neutralization by PGT-125, IC90 [30]: > 10 µg/mL
Neutralization by PGT-125, IC95 [30]: > 10 µg/mL
